T1: CD20 on CD20+ Ramos B cells (human, UniProt P11836 1-297)
T1 construct: whole, on cells; also called human CD20
T1 sequence (looked up): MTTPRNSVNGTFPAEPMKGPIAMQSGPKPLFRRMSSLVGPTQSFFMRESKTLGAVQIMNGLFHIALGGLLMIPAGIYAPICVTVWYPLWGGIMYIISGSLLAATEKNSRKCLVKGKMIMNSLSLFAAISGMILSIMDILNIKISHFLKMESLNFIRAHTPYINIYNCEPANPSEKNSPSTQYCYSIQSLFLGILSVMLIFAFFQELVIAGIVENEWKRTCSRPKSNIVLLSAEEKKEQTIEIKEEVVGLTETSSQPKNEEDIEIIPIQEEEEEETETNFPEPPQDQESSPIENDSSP


Legend:
[1] = biological target: CD20 on CD20+ Ramos B cells (human) (UniProt P11836); test: flow cytometry on Ramos B cells, PE-conjugated goat anti-human IgG Fc secondary
[2] = biological target: T1, CD20 on CD20+ Ramos B cells; test: as above
Experimental: Next, binding of the improved CD20 mAb to CD20+ Ramos B cells was investigated. 1.5×10⁵ Ramos B cells were incubated with indicated concentrations of bivalent IgG1 mAb having either [CD20]H0L0 or optimized [CD20]_H1_L1 on ice for 1 hour. PE-conjugated goat anti-human IgG Fc was used as a secondary antibody to detect binding of the CD20 mAbs to the target cells.

EC50 [1] [µg/mL] | EC50 [2] [µg/mL] | Molecule
0.264 |  | bivalent IgG1 mAb having the rituximab Fv [CD20]_H0L0 (antibody)
 | 0.175 | bivalent IgG1 mAb having humanized/affinity-optimized [CD20]_H1_L1 Fv (antibody, V domains shown, also called improved CD20 mAb) VH: QVQLVQSGAEVKKPGASVKVSCKASGYTFTSYNMHWVRQAPGQRLEWMGAIYPGNGATSYSQKFQGRVTITADTSASTAYMELSSLRSEDTAVYYCARSYYMGGDWYFDVWGAGTLVTVSS VL: QIVLTQSPSSLSASVGDRVTITCRASWSVSYIHWFQQKPGKSPKPLIYATSNLASGVPVRFSGSGSGTDYTLTISSLQPEDFATYYCQQWTHNPPTFGGGTKVEIK

Reference: patent publication US20250197519A1 (Xencor, published 2025)
